Data reported in FireProtDB (doi:10.1021/bi00105a011).

B1: Lysozyme C, P61626 (parent)
chain: MKALIVLGLVLLSVTVQGKVFERCELARTLKRLGMDGYRGISLANWMCLAKWESGYNTRATNYNAGDRSTDYGIFQINSRYWCNDGKTPGAVNACHLSCSALLQDNIADAVACAKRVVRDPQGIRAWVAWRNRCQNRDVRQYVQGCGV

Variants of: B1
Conditions: Homo sapiens; pH 3; 25 °C; GdnHCl; CD; glycine-HCl 40 mM; reversible: yes (100%); structure 1LZ1; whole UniProt chain shown

Row | Variant | ddG of mutation (higher = less stable) [kcal/mol] | denaturant m value [kcal/mol/M] | denaturant midpoint (higher = more stable) [M] | unfolding free energy [kcal/mol]
1 | A65P | -1.1 | 5.5 | 3.3 | 10.8
2 | P89G | 1.2 | 5.43 | 2.63 | 8.5
3 | P89G P121G | 1.1 | 5.48 | 2.64 | 8.6
4 | D109P | 0.8 | 5.42 | 2.78 | 8.9
5 | P121G | 0 | 5.55 | 2.95 | 9.7
6 | V128P | -2.4 | 6.69 | 3.05 | 12.1
